Each block holds one binder with its values, some of them ahead of it.
Legend:
[1] = biological target: T1, rDR5-IgG4 (recombinant wild type DR5 with IgG4 Fc) (UniProt O14763 56-210, biotinylated for BLI (site not stated)); assay: BLI
[2] = biological target: T1, rDR5-IgG4 (recombinant wild type DR5 …); assay: BLI; remark: listed apart in the source
R104W DR5 = assay: BLI
R104Y DR5 = assay: BLI
[3] = biological target: T1, rDR5-IgG4 (recombinant wild type DR5 …); assay: ELISA
[4] = biological target: T1, rDR5-IgG4 (recombinant wild type DR5 …); assay: ELISA; remark: listed apart in the source
KKCR = assay: ELISA
RKCAR DR5 = assay: BLI
Chimp DR5 = assay: BLI
RKCSR DR5 = assay: BLI
Monkey DR5 = assay: BLI
[5] = biological target: rDR5-IgG4-Fc EMCR:AACR (98-101) Mut (90s Mut) (UniProt O14763 56-210, biotinylated for BLI (site not stated)); assay: BLI
[6] = biological target: rDR5-IgG4-Fc SGE:AAA (135-137) NS Mut; assay: BLI
[7] = biological target: rDR5-IgG4-Fc KYGQ:AAGA (45-48) Mut; assay: BLI
rDR5-IgG4-Fc = rDR5-IgG4-Fc (UniProt O14763 56-210, biotinylated for BLI (site not stated)); assay: BLI
DR5 (3RA) = assay: ELISA
DR5 (WT) = DR5 (WT) (UniProt O14763 56-210, biotinylated for BLI (site not stated)); assay: ELISA

Chain of R104Y DR5 (chain, as listed by the source R104Y): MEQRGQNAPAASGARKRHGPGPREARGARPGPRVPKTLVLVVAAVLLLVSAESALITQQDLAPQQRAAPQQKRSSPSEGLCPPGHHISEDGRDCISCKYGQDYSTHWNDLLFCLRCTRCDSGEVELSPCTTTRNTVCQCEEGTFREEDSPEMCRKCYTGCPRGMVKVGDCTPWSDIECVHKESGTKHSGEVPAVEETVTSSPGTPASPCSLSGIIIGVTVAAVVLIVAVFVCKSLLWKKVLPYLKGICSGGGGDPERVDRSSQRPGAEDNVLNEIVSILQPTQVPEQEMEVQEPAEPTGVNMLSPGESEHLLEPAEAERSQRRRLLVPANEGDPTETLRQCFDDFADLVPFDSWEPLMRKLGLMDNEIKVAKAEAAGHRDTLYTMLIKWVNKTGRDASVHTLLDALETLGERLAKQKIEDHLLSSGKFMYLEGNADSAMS
Chain of R104W DR5 (chain, as listed by the source R104W): as the sequence (chain, as listed by the source R104Y) above, with Y157W counted along it

Kd [1]: 0.519 nM | Kd [2]: 0.0376 nM | Kd (R104W DR5): 1.82 nM | Kd (R104Y DR5): 1.93 nM | Kd [3]: 0.081 nM | Kd [4]: 0.032 nM
B1: lexatumumab (antibody, V domains shown)
VH: EVQLVQSGGGVERPGGSLRLSCAASGFTFDDYGMSWVRQAPGKGLEWVSGINWNGGSTGYADSVKGRVTISRDNAKNSLYLQMNSLRAEDTAVYYCAKILGAGRGWYFDLWGKGTTVTVSS
VL: SSELTQDPAVSVALGQTVRITCQGDSLRSYYASWYQQKPGQAPVLVIYGKNNRPSGIPDRFSGSSSGNTASLTITGAQAEDEADYYCNSRDSSGNHVVFGGGTKLTVL

koff [5]: 1.61e-05 s⁻¹ | koff [6]: 2.01e-05 s⁻¹ | koff [7]: 1e-07 s⁻¹ | Kd (rDR5-IgG4-Fc): < 0.001 nM | Kd (DR5 (3RA)): 0.087 nM | Kd (DR5 (WT)): 0.088 nM
B4: KMTR2 (antibody, V domains shown)
VH: QVQLVQSGAEMKKPGASVKVSCKTSGYTFTNYKINWVRQAPGQGLEWMGWMNPDTDSTGYPQKFQGRVTMTRNTSISTAYMELSSLRSEDTAVYYCARSYGSGSYYRDYYYGMDVWGQGTTVTVSS
VL: EIVLTQSPATLSLSPGERATLSCRASQSVSSYLAWYQQKPGQAPRLLIYDASNRATGIPARFSGSGSGTDFTLTISSLEPEDFAVYYCQQRSNWPLTFGGGTKVEIKR

The next lines start with the binder.

B2: Antibody (antibody, V domains shown)
VH: EVQLVQSGGGVERPGGSLRLSCAASGFTFDDYGMSWVRQAPGKGLEWVSGINWNGGSTGYADSVKGRVTISRDNAKNSLYLQMNSLRAEDTAVYYCAKILGAGRGWYFDLWGKGTTVTVSS
VL: SSELTQDPAVSVALGQTVRITCQGDSLRSYYASWYQQKPGQAPVLVIYGKNNRPSGIPDRFSGSSSGNTASLTITGAQAEDEADYYCNSRDSSGNHVVFGGGTKLTVL
Kd (KKCR): 1.19 nM

B3: Biot-Lexa (antibody, V domains shown)
VH: EVQLVQSGGGVERPGGSLRLSCAASGFTFDDYGMSWVRQAPGKGLEWVSGINWNGGSTGYADSVKGRVTISRDNAKNSLYLQMNSLRAEDTAVYYCAKILGAGRGWYFDLWGKGTTVTVSS
VL: SSELTQDPAVSVALGQTVRITCQGDSLRSYYASWYQQKPGQAPVLVIYGKNNRPSGIPDRFSGSSSGNTASLTITGAQAEDEADYYCNSRDSSGNHVVFGGGTKLTVL
Kd (RKCAR DR5): 0.266 nM | Kd (Chimp DR5): < 0.001 nM | Kd (RKCSR DR5): 0.215 nM | Kd (Monkey DR5): 0.014 nM

— patent publication US20250376532A1 (published 2025)
